In the assay the target is fused protein β-gal97S4DhCNP-22R5-3 (human) (UniProt P23582).

The substance “natural V8 protease (Staphylococcus aureus V8 protease) (from UniProt P0C1U8) (enzyme)” gave a cleavage efficiency (proportion of fused protein cleaved) of 60%.

Source of the values: patent US5747321.
